Data reported in publication PMC2995167 (The Journal of Cell Biology, 2010).

Molecular target: the molecule itself
Test: bead aggregation assay

B1: NcadEC-Fc (Fc fusion)
chain: DWVIPPVNVLENSRKQFPEELVKIQSDKDKSNTLRYSVTGPGADQNPTGLFIIDPISGLLSVTKPLDREHIPNFHLRAHAVDINGNQMENPIDIIINVIDMNDNRPEFTHQIWNGTVDEGAKPGTFVMTVTSQDKDDPNTANGMLRYKILSQTPESPSSNMFTINNKTGKIITVAAGLDREKVPQYTLIIQATDMEGNPTYGLSNTATAVIRLLDVNDNAPEFTRETFHGEVPENRVNVIVTNLTVTDKDEPGTPAWNAVYRIISGDPTGRFSIPTDPVTNEGLVTVVKPVDFEMNRSFMLTVVADNEVPLASGIHRTRQSTATVSIRVIDVNESPNFDPNPKQIKLEEGLPQWSMLTTFTAHDPDRYMQQTISYSKLYDPANWLEIDPNNGRISTIAVLDRESPYVKNNLYNATFMASDNGVPRASGTGTLQIYLLDINDNAPRVFPQEAEVCERPEPNAINITAVDGDLNPNAGPYAFELPNRPSDIRRNWTLTRISGDHAQLSLKISYLESGIYELPISITDSGNLPMSNTTYLRIKVCQCDHHGDCVDMERIMAAGLGTGA
- binding result: binds
